# Measured values taken from US4770996A, “Identification of individuals predisposed toward alcohol abuse” (priority 1986, dated 1988).
# B1: platelet monoamine oxidase (MAO) (Homo sapiens) (protein)
# chain: MSNKCDVVVVGGGISGMAAAKLLHDSGLNVVVLEARDRVGGRTYTLRNQKVKYVDLGGSYVGPTQNRILRLAKELGLETYKVNEVERLIHHVKGKSYPFRGPFPPVWNPITYLDHNNFWRTMDDMGREIPSDAPWKAPLAEEWDNMTMKELLDKLCWTESAKQLATLFVNLCVTAETHEVSALWFLWYVKQCGGTTRIISTTNGGQERKFVGGSGQVSERIMDLLGDRVKLERPVIYIDQTRENVLVETLNHEMYEAKYVISAIPPTLGMKIHFNPPLPMMRNQMITRVPLGSVIKCIVYYKEPFWRKKDYCGTMIIDGEEAPVAYTLDDTKPEGNYAAIMGFILAHKARKLARLTKEERLKKLCELYAKVLGSLEALEPVHYEEKNWCEEQYSGGCYTTYFPPGILTQYGRVLRQPVDRIYFAGTETATHWSGYMEGAVEAGERAAREILHAMGKIPEDEIWQSEPESVDVPAQPITTTFLERHLPSVPGLLRLIGLTTIFSATALGFLAHKRGLLVRV
# notes: contained approximately 15 ug of platelet protein; from tissue; host or cells: platelets (membranes) from whole blood of volunteers and alcoholic subjects
# Substrate: NCCc1ccccc1
# Experiment: Platelet monoamine oxidase (MAO) assay, deamination of 14C-PEA
# Format: biochemical, human
# Conditions: other: platelets of control subjects; varying PEA; mean±SEM, n=6; 37.0 °C
# Procedure: Platelets were prepared from whole blood (20 ml) which was obtained by venipuncture from healthy volunteers and alcoholic subjects. After standing at room temperature for approximately three to four hours in citrate-phosphate-dextrose solution, each blood sample was centrifuged at 180×G for two minutes. The platelet-rich plasma (PRP) was carefully removed and platelet count was determined from aliquots (20 ul) of the PRP with a Coulter S-plus Thrombocounter. The PRP was centrifuged at 16,000 g for ten minutes. The pellet was resuspended in 50 ml of cold 50 mM Tris-HCl, pH 7.5, containing […] NaCl and 20 mM ethylene diamine tetraacetic acid (EDTA). The centrifugation was repeated twice, and the final pellet was resuspended in 1 ml of cold 5 mM Tris-HCl, pH 7.5, containing 5 mM EDTA. Suspensions were rapidly frozen at -70° C., and samples were stored at -70° C. for no longer than four weeks prior to assay.
# To measure the deamination of ^14 C-PEA, assay mixtures (total volume, 0.3 ml) contained approximately 15 ug of platelet protein. Reactions were carried out in 0.1 M sodium phosphate, pH 7.4, at 37° C. […] Two additional ml of water and 20 ml of scintillation fluid were added to each vial, and radioactivity was determined in a liquid scintillation spectrometer. […]
protein,measurement,value
B1,Km,1.4 ± 0.2 µM
same,Vmax,508±37 pmole/mg protein/minute
